Data: patent US20260092097A1 (published 2026)

Target: T1, p53 peptide on HLA-A*02:01 (human)
T1 peptide: STPPPGTRV
Experiment: binding, other

B1: c149scTCR (TCR, V domains shown)
Valpha: QKVTQTQTSISVMEKTTVTMDCVYETRDSSYFLFWYKQTASGEIVFLIRQDSYKKENATEGHYSLNFQKPKSSIGLIITATQIEDSAVYFCAMRDTNAYKVIFGKGTHLHVLP
Vbeta: EAAVTQSPRSKVAVTGGKVTLSCHQTNNHDYMYWYRQDTGHGLRLIHYSYVADSTEKGDIPDGYKASRPSQENFSLILELASLSQTAVYFCASSPHSYEQYFGPGTRLTVL
  binding result: recognises
